According to publication PMC4568301 (The Biochemical journal, 2012):

T1: NHERF2–VC (Na+/H+ exchanger regulatory factor 2, HA-tagged, fused to the C-terminal fragment of Venus), Q15599
T1 chain: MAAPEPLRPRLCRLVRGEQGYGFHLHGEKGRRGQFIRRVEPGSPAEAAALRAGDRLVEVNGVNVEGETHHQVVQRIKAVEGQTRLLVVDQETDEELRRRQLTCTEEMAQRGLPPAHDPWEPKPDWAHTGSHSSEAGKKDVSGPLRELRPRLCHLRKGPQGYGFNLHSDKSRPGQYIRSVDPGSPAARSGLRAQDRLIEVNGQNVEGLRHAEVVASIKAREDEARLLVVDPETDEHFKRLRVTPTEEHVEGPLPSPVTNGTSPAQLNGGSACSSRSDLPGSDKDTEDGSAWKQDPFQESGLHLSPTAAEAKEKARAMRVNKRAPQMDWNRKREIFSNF

T2: Tir-EPEC (residues 1–550), His6-tagged (enteropathogenic Escherichia coli (EPEC), UniProt B7UM99 1-550)
T2 sequence: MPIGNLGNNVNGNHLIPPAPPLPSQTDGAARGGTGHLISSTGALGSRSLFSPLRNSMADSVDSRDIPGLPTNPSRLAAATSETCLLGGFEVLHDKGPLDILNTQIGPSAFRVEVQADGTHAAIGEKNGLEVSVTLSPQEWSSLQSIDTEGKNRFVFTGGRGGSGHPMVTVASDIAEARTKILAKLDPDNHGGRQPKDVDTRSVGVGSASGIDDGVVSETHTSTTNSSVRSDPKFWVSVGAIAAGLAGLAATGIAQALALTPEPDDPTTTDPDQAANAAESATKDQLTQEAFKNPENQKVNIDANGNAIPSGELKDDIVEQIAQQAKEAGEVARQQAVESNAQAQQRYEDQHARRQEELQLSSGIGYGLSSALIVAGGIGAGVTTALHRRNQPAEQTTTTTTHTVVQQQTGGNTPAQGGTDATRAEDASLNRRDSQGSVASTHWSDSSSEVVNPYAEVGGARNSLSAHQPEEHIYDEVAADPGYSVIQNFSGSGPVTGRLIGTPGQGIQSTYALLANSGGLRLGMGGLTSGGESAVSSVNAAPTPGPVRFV

T3: His6–Tir-EHEC (residues 1–558) (enterohaemorrhagic Escherichia coli …, UniProt Q7DB77 1-558)
T3 sequence: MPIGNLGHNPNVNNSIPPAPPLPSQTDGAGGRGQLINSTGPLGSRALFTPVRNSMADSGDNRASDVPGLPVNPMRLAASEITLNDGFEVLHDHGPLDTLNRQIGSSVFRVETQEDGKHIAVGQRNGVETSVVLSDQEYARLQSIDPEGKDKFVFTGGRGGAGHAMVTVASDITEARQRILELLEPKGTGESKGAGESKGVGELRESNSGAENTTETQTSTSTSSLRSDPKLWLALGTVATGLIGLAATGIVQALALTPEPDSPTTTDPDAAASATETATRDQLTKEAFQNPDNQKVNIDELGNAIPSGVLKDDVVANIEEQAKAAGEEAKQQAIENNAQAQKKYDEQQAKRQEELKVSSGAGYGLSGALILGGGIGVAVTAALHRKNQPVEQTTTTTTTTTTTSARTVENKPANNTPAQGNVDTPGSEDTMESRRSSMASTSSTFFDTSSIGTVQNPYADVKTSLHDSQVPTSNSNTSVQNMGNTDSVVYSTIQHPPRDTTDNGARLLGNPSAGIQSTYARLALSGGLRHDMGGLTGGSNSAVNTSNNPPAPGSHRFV


Legend:
[1] = target: AnxA2–HA (His6–AnxA2 fused to an HA tag, residues 1–339) (human, UniProt P07355 1-339); test: […]
[2] = target: T1, NHERF2–VC (Na+/H+ exchanger regulatory …); test: split reporter; conditions: remark: other sources report otherwise
[3] = target: T2, Tir-EPEC (residues 1–550), His6-tagged; test: […]
[4] = target: T3, His6–Tir-EHEC (residues 1–558); test: […]

Chain of AnxA2–HA (His6–AnxA2 fused to an HA tag, residues 1–339) (P07355 whole entry, the tested form may be a part): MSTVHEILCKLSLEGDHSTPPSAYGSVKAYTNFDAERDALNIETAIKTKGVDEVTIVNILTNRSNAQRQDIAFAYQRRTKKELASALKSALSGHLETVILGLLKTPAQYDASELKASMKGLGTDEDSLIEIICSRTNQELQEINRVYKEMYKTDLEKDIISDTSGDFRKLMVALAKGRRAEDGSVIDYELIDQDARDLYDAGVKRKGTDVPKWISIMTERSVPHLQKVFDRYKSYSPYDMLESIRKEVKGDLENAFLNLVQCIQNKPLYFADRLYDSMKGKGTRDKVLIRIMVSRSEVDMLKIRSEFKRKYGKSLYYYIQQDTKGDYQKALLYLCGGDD

| Binder | binding result [1] | other results |
| --- | --- | --- |
| TirN-EHEC (residues 1–237), His6-tagged (domain or fragment) MPIGNLGHNPNVNNSIPPAPPLPSQTDGAGGRGQLINSTGPLGSRALFTPVRNSMADSGDNRASDVPGLPVNPMRLAASEITLNDGFEVLHDHGPLDTLNRQIGSSVFRVETQEDGKHIAVGQRNGVETSVVLSDQEYARLQSIDPEGKDKFVFTGGRGGAGHAMVTVASDITEARQRILELLEPKGTGESKGAGESKGVGELRESNSGAENTTETQTSTSTSSLRSDPKLWLALGT | binds | – |
| NHERF2–VC (Na+/H+ exchanger regulatory factor 2, HA-tagged, fused to the C-terminal fragment of Venus), Q15599 1-337 (natural protein) MAAPEPLRPRLCRLVRGEQGYGFHLHGEKGRRGQFIRRVEPGSPAEAAALRAGDRLVEVNGVNVEGETHHQVVQRIKAVEGQTRLLVVDQETDEELRRRQLTCTEEMAQRGLPPAHDPWEPKPDWAHTGSHSSEAGKKDVSGPLRELRPRLCHLRKGPQGYGFNLHSDKSRPGQYIRSVDPGSPAARSGLRAQDRLIEVNGQNVEGLRHAEVVASIKAREDEARLLVVDPETDEHFKRLRVTPTEEHVEGPLPSPVTNGTSPAQLNGGSACSSRSDLPGSDKDTEDGSAWKQDPFQESGLHLSPTAAEAKEKARAMRVNKRAPQMDWNRKREIFSNF | – | BiFC signal, percent of Venus fluorescence (% of Venus fluorescence) [2]: 75 |
| TirC-EPEC (residues 369–550), His6-tagged (domain or fragment) SSALIVAGGIGAGVTTALHRRNQPAEQTTTTTTHTVVQQQTGGNTPAQGGTDATRAEDASLNRRDSQGSVASTHWSDSSSEVVNPYAEVGGARNSLSAHQPEEHIYDEVAADPGYSVIQNFSGSGPVTGRLIGTPGQGIQSTYALLANSGGLRLGMGGLTSGGESAVSSVNAAPTPGPVRFV | binds | – |
| AnxA2-C (C-terminal region of AnxA2, amino acids 191–339), His6-tagged (domain or fragment) IDQDARDLYDAGVKRKGTDVPKWISIMTERSVPHLQKVFDRYKSYSPYDMLESIRKEVKGDLENAFLNLVQCIQNKPLYFADRLYDSMKGKGTRDKVLIRIMVSRSEVDMLKIRSEFKRKYGKSLYYYIQQDTKGDYQKALLYLCGGDD | – | binding result [3]: binds; binding result [4]: binds |
| TirN-EPEC (residues 1–240), His6-tagged (domain or fragment) MPIGNLGNNVNGNHLIPPAPPLPSQTDGAARGGTGHLISSTGALGSRSLFSPLRNSMADSVDSRDIPGLPTNPSRLAAATSETCLLGGFEVLHDKGPLDILNTQIGPSAFRVEVQADGTHAAIGEKNGLEVSVTLSPQEWSSLQSIDTEGKNRFVFTGGRGGSGHPMVTVASDIAEARTKILAKLDPDNHGGRQPKDVDTRSVGVGSASGIDDGVVSETHTSTTNSSVRSDPKFWVSVGA | binds | – |
| TirC-EHEC (residues 366–558), His6-tagged (domain or fragment) SGALILGGGIGVAVTAALHRKNQPVEQTTTTTTTTTTTSARTVENKPANNTPAQGNVDTPGSEDTMESRRSSMASTSSTFFDTSSIGTVQNPYADVKTSLHDSQVPTSNSNTSVQNMGNTDSVVYSTIQHPPRDTTDNGARLLGNPSAGIQSTYARLALSGGLRHDMGGLTGGSNSAVNTSNNPPAPGSHRFV | binds | – |
